Data on one molecule can be found in CN117924498A (UNIV SOUTHWEST MEDICAL, dated 2024).

As a reminder, the Kd is the constant that tells how readily two partners part at equilibrium.

The target in one assay is T1, human-siglec-15蛋白 (human, UniProt Q6ZMC9 20-263, biotinylated in the BLI assay and in phage panning (site not stated)).
T1 construct: Bought protein (Novoprotein for ELISA coating; biotinylated antigen from Obiosh for panning); The same entry is used for the plain and the biotinylated protein; also called hsiglec-15; siglec-15抗原
T1 sequence (looked up): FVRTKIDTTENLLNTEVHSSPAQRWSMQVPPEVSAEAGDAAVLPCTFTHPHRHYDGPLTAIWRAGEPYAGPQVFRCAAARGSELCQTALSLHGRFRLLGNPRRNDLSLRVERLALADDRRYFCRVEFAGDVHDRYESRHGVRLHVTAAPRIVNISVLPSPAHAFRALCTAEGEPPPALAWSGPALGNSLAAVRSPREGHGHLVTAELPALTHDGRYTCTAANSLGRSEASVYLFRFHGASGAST
Briefly: BLI (Octet RED96), biotinylated siglec-15 on SA sensor, antibody at 5, 10, 20 μg/mL. (Biolayer interferometry detects binding as a change in optical thickness at a sensor tip.)

The target in a further assay is T2, CD24蛋白 (UniProt P25063 27-59).
T2 chain (looked up): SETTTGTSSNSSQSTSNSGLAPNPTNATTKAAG
Briefly: ELISA, antigen coated at 1 μg/mL. Background: In an ELISA, binding on a coated surface is turned into a signal by an enzyme label.

The target of a further assay is EphA2蛋白 (UniProt P29317 25-534, limits assumed). Kind of assay: ELISA, antigen coated at 1 μg/mL.
EphA2蛋白, sequence (P29317 25-534 limits assumed): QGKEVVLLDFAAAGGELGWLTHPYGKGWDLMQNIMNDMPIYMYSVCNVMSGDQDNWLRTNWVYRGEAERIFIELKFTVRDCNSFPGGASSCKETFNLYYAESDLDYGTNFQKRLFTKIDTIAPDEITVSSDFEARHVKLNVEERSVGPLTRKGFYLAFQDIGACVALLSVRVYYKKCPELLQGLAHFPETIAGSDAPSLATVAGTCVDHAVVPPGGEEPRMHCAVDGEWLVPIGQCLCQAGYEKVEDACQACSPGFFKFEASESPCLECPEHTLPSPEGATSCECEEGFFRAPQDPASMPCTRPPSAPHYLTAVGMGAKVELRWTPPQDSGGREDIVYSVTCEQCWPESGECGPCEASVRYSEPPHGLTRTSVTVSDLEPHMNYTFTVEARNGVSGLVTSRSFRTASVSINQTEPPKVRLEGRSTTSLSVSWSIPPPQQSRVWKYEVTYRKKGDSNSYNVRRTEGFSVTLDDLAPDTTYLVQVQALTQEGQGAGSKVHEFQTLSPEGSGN
Another assay deals with T3, B7-H3蛋白 (UniProt Q5ZPR3-2 29-245, limits assumed).
T3 sequence (looked up): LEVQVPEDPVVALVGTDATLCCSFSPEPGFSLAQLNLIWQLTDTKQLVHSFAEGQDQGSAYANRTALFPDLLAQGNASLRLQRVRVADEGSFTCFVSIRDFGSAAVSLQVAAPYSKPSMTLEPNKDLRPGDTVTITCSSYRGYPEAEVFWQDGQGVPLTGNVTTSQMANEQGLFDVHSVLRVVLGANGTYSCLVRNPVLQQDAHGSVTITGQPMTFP
Kind of assay: ELISA, antigen coated at 1 μg/mL.

The target of the next assay is T4, Trop2蛋白 (UniProt P09758 27-274).
T4 sequence (looked up): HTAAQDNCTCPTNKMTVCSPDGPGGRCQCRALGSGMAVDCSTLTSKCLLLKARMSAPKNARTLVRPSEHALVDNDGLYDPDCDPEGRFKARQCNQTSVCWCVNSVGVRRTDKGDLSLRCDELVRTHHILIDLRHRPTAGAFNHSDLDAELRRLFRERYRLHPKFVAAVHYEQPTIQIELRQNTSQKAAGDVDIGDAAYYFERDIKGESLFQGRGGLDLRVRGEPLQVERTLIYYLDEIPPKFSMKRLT
Kind of assay: ELISA, antigen coated at 1 μg/mL.

B1: S131-IgG1 (antibody, V domains shown)
VH: QVQLQESGPGLVNPSGTLSLSCTVSGDSIRNWYSWVRQPPGKGLEWIGEIHDNGGTNHNPSLKSRVTMSVGKSTSQLSLILNSVTAADTAVYHCAREGLPDGLDIWGPGTMVTVSS
VL: SSELTQDPAVSVALGQTVRITCQGDSLRSYYASWYQRKPGQAPILVMYGQNNRPSGIPDRFSGSNSRNTASLTITGAQAEDEADYYCGSRDTSDYRVLFGGGTKLTVLG
notes: also called 抗siglec15-IgG1重组抗体S131-IgG1; 全人源抗siglec-15-IgG1抗体
Turning to B1, in the assay with human-siglec-15蛋白, the Kd is approximately 1 nM. Further, the binding result with CD24蛋白, with EphA2蛋白, with B7-H3蛋白 and with Trop2蛋白 was “no binding” each time.
